In patent US20070243181:

myc-IRAK1c-KD, sequence (chain, as listed by the source): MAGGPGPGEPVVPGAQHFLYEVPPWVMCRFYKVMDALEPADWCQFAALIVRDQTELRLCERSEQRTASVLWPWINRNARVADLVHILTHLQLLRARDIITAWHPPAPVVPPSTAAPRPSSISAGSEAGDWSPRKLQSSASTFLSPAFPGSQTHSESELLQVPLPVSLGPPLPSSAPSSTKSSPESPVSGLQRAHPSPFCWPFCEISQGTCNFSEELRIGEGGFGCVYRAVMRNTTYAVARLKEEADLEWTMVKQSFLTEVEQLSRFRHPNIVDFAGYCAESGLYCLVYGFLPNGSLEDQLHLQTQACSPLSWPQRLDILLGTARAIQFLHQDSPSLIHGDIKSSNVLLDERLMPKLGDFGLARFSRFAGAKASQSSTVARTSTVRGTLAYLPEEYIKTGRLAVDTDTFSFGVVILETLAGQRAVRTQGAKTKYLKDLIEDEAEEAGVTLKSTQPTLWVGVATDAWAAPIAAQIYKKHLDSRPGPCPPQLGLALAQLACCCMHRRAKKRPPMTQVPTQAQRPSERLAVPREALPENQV
myc-IRAK1c, sequence (chain, as listed by the source): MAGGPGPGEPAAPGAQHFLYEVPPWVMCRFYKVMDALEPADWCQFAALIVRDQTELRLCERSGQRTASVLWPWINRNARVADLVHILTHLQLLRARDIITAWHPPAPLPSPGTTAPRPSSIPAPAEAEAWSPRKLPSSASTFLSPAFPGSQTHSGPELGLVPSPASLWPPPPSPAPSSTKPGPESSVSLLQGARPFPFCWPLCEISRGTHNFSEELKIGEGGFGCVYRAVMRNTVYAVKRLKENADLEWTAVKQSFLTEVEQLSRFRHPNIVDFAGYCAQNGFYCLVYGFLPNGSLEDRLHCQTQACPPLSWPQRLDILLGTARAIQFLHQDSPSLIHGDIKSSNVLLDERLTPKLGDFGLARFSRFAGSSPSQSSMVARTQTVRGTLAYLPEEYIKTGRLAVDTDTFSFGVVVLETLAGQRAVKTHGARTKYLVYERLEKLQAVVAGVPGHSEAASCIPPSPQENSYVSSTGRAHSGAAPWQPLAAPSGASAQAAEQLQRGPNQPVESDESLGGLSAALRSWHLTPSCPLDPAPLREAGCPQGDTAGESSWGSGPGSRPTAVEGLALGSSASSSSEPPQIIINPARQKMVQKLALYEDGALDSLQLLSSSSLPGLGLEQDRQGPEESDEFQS

B1: recombinant IRAK4 (protein)
chain: MNKPITPSTYVRCLNVGLIRKLSDFIDPQEGWKKLAVAIKKPSGDDRYNQFHIRRFEALLQTGKSPTSELLFDWGTTNCTVGDLVDLLIQNEFFAPASLLLPDAVPKTANTLPSKEAITVQQKQMPFCDKDRTLMTPVQNLEQSYMPPDSSSPENKSLEVSDTRFHSFSFYELKNVTNNFDERPISVGGNKMGEGGFGVVYKGYVNNTTVAVKKLAAMVDITTEELKQQFDQEIKVMAKCQHENLVELLGFSSDGDDLCLVYVYMPNGSLLDRLSCLDGTPPLSWHMRCKIAQGAANGINFLHENHHIHRDIKSANILLDEAFTAKISDFGLARASEKFAQTVMTSRIVGTTAYMAPEALRGEITPKSDIYSFGVVLLEIITGLPAVDEHREPQLLLDIKEEIEDEEKTIEDYIDKKMNDADSTSVEAMYSVASQCLHEKKNKRPDIKKVQQLLQEMTAS
For B1, the “in vitro kinase assay on anti-myc immunoprecipitates, autoradiography” value (myc-IRAK1c) was “Neither IPAK1c nor IPAK1c-KD showed any phosphorylation in the presence of IRAK4” and the “in vitro kinase assay on anti-myc immunoprecipitates, autoradiography” value (myc-IRAK1c-KD) was “Neither IPAK1c nor IPAK1c-KD showed any phosphorylation in the presence of IRAK4”.
